T1: AR-DBD + LBD (yeast 2-hybrid bait) (UniProt P10275 506-920)
T1 sequence (looked up): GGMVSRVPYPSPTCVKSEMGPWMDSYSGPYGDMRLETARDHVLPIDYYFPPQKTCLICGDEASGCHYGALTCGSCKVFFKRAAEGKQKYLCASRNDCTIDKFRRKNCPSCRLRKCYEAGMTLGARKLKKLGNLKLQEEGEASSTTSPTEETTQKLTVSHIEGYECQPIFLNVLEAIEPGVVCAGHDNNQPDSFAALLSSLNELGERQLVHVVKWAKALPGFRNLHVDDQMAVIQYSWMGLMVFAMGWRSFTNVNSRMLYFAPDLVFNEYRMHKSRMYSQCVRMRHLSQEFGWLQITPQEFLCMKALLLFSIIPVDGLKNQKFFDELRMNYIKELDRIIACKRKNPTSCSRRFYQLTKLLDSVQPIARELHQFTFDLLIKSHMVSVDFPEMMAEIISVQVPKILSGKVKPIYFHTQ

T2: AR-DBD (yeast 2-hybrid bait) (UniProt P10275 506-636)
T2 sequence (looked up): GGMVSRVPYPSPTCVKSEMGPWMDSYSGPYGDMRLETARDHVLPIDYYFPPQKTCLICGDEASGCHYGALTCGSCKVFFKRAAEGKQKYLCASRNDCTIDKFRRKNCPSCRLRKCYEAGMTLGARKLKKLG

T3: AR-AT (yeast 2-hybrid bait) (UniProt P10275 1-505)
T3 sequence (looked up): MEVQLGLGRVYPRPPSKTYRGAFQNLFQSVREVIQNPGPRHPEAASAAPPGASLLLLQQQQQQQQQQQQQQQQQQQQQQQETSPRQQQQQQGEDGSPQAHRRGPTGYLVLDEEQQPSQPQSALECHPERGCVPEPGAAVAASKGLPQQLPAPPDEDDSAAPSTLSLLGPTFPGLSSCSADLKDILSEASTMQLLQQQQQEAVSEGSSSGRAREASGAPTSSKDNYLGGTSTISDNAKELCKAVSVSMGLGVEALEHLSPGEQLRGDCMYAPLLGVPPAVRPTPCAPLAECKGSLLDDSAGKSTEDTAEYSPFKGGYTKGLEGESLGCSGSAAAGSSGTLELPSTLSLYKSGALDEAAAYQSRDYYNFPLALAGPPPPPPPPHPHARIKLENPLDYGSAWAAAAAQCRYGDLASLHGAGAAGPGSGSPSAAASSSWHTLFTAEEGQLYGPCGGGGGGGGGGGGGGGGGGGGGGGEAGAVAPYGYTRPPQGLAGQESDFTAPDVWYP

B1: pGAD424-GRIP1 (yeast 2-hybrid prey, GRIP1 amino acids 730-1121) (other, UniProt Q61026 730-1121, looked up, not shown: large carriers)
chain: VKQEPASPKKKENALLRYLLDKDDTKDIGLPEITPKLERLDSKTDPASNTKLIAMKTVKEEVSFEPSDQPGSELDNLEEILDDLQNSQLPQLFPDTRPGAPTGSVDKQAIINDLMQLTADSSPVPPAGAQKAALRMSQSTFNNPRPGQLGRLLPNQNLPLDITLQSPTGAGPFPPIRNSSPYSVIPQPGMMGNQGMLGSQGNLGNNSTGMIGSSTSRPSMPSGEWAPQSPAVRVTCAATTGAMNRPVQGGMIRNPTASIPMRANSQPGQRQMLQSQVMNIGPSELEMNMGGPQYNQQQAPPNQTAPWPESILPIDQASFASQNRQPFGSSPDDLLCPHPAAESPSDEGALLDQLYLALRNFDGLEEIDRALGIPELVSQSQAVDAEQFSSQE
B2: pACT2-PAK (yeast 2-hybrid prey) (other, not shown: large carriers)
chain: LKRRLFRSMFLSTAATAPPSSSKPGPPPQSKPNSSFRPPQKDNPPSLVAKAQSLPSDQPVGTFSPLTTSDTSSPQKSLRTAPATGQLPGRSSPAGSPRTWHAQISTSNLYLPQDPTVAKGALAGEDTGVVTHEQFKAALRMVVDQGDPRLLLDSYVKIGEGSTGIVCLAREKHSGRQVAVKMMDLRKQQRRELLFNEVVIMRDYQHFNVVEMYKNYLVGEELWVLMEFLQGGALTDIVSQVRLNEEQIATVCEAVLQALAYLHAQGVIHRDIKSDSILLTLDGRVKLSDFGFCAQISKDVPKRKSLVGTPYWMAPEVISRSLYATEVDIWSLGIMVIEMVDGEPPYFSDSPVQAMKRLRDSPPPKLKNSHKVSPVLRDFLERMLVRDPQERATAQELLDHPFLLQTGLPECLVPLIQLYRKQTSTC

Columns and labels:
Assay in all cases: cell-based or functional assay
[1] = molecular target: T1, AR-DBD + LBD (yeast 2-hybrid bait)
[2] = molecular target: T2, AR-DBD (yeast 2-hybrid bait)
[3] = molecular target: pAS2 vector (empty bait control)
[4] = molecular target: cortactin (yeast 2-hybrid bait)
[5] = molecular target: T3, AR-AT (yeast 2-hybrid bait)

Fold induction of β-galactosidase by DHT (yeast 2-hybrid) [1] [fold]	Fold induction of β-galactosidase by DHT (yeast 2-hybrid) [2] [fold]	Fold induction of β-galactosidase by DHT (yeast 2-hybrid) [3] [fold]	Fold induction of β-galactosidase by DHT (yeast 2-hybrid) [4] [fold]	Fold induction of β-galactosidase by DHT (yeast 2-hybrid) [5] [fold]	Binder
5.7					B1
27	0.9	1.2	1	1.1	B2

From patent US20030166623A1 (BETH ISRAEL DEACONESS MEDICAL CENTER, published 2003)
